The source of these data is publication PMC2875157 (Nature, 2010).

In the assay the target is Yeast eIF2αβγ complex, purified (his-tagged eIF2γ) (yeast, UniProt P20459;P09064;P32481). The assay can be described thus: pull-down.
Yeast eIF2αβγ complex, purified (his-tagged eIF2γ), sequence (P20459 whole entry, chain 1 of 3): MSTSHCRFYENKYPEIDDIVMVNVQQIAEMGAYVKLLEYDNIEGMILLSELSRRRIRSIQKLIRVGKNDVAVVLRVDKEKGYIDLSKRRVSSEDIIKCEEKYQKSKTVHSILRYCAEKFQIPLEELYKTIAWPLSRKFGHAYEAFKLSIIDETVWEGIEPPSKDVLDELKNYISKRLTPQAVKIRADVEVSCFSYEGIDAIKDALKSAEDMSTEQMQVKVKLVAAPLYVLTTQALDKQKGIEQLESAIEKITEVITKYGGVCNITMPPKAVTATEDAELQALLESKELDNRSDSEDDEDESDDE
Yeast eIF2αβγ complex, purified (his-tagged eIF2γ), sequence (P09064 whole entry, chain 2 of 3): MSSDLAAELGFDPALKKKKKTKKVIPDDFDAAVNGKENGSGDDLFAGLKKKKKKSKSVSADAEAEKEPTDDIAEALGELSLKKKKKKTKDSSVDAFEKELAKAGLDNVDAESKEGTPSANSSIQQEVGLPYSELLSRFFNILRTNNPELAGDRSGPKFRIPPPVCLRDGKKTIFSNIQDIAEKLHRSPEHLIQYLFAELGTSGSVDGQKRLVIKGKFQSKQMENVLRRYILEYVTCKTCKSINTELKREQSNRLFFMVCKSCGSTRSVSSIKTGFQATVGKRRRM
Yeast eIF2αβγ complex, purified (his-tagged eIF2γ), sequence (P32481 whole entry, chain 3 of 3): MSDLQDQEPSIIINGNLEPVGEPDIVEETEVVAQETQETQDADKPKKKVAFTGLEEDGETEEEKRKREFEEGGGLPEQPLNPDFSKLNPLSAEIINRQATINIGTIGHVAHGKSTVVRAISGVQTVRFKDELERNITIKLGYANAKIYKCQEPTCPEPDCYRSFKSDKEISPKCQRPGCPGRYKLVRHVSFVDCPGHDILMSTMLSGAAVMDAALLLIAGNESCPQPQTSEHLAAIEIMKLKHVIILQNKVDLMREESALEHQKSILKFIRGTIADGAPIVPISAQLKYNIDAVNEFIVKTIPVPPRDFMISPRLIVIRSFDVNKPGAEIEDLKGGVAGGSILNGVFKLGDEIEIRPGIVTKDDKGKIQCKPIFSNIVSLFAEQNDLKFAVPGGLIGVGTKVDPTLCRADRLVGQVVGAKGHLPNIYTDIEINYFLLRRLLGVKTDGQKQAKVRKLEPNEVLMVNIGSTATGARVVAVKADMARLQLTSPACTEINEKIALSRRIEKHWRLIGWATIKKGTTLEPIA

B1: GST-eIF5^W391F (natural protein)
chain: MSINICRDNHDPFYRYKMPPIQAKVEGRGNGIKTAVLNVADISHALNRPAPYIVKYFGFELGAQTSISVDKDRYLVNGVHEPAKLQDVLDGFINKFVLCGSCKNPETEIIITKDNDLVRDCKACGKRTPMDLRHKLSSFILKNPPDSVSGSKKKKKAATASANVRGGGLSISDIAQGKSQNAPSDGTGSSTPQHHDEDEDELSRQIKAAASTLEDIEVKDDEWAVDMSEEAIRARAKELEVNSELTQLDEYGEWILEQAGEDKENLPSDVELYKKAAELDVLNDPKIGCVLAQCLFDEDIVNEIAEHNAFFTKILVTPEYEKNFMGGIERFLGLEHKDLIPLLPKILVQLYNNDIISEEEIMRFGTKSSKKFVPKEVSKKVRRAAKPFITFLETAESDDDEEDDE
B1: the binding result was “binds”.

B2: GST-eIF5^LR+CTD (domain or fragment)
chain: KKKKAATASANVRGGGLSISDIAQGKSQNAPSDGTGSSTPQHHDEDEDELSRQIKAAASTLEDIEVKDDEWAVDMSEEAIRARAKELEVNSELTQLDEYGEWILEQAGEDKENLPSDVELYKKAAELDVLNDPKIGCVLAQCLFDEDIVNEIAEHNAFFTKILVTPEYEKNFMGGIERFLGLEHKDLIPLLPKILVQLYNNDIISEEEIMRFGTKSSKKFVPKEVSKKVRRAAKPFITWLETAESDDDEEDDE
With B2, the binding result is “binds”.

B3: GST-eIF5^CTD (domain or fragment)
chain: VNSELTQLDEYGEWILEQAGEDKENLPSDVELYKKAAELDVLNDPKIGCVLAQCLFDEDIVNEIAEHNAFFTKILVTPEYEKNFMGGIERFLGLEHKDLIPLLPKILVQLYNNDIISEEEIMRFGTKSSKKFVPKEVSKKVRRAAKPFITWLETAESDDDEEDDE
For the molecule B3, the binding result is recorded as “binds”.
